Reference: publication PMC9867772

Biological target: Anthrol reductase CbAR from Cercospora sp. JNU001 (Cercospora sp. JNU001)
Assay: SEC; purified CbAR on gel filtration (Supplementary Fig. 1b, c); the column of the purification was Hiload 16/600 Superdex 200 pg in 25 mM Tris-HCl pH 8.0, 150 mM NaCl

- stoichiometry N: 2
Substance: Anthrol reductase CbAR from Cercospora sp. JNU001 (enzyme)
